Measured values published in the supplement of paper PMC10567573.

B1: OAS1 (parent)
chain: LQLGEGVEFDVLPAFDALGQLTGG
B2: EMID1 (parent)
chain: FTETNNHWPQGPTGPPGPPGPMGP

Variants of: B1
Experiment: protein stability index of a GFP-peptide fusion (GPS, HEK-293T) (PSI 1-6); higher = more stable
Conditions: c terminus: a fixed tail appended
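Further: lentivirally expressed fusions sorted by FACS into six bins by GFP to DsRed ratio, PSI derived from sequencing read proportions per bin multiplied by bin number.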

| Variant | protein stability index |
| --- | --- |
| L1V | 2.71 |
| L1M | 2.57 |
| L1I | 1.04 |
| L1D | 4.96 |
| L1K | 3.67 |
| L1G | 4.46 |
| L1R | 4.01 |
| L1H | 4.33 |
| L1N | 4.18 |
| E5Q | 1.64 |
| E5D | 2.24 |
| E5N | 2.09 |
| E5H | 1.68 |
| E5A | 1.99 |
| A14G | 1.88 |
| A14Q | 2.46 |
| A14T | 2.34 |
| A14I | 1.48 |
| A14C | 1.37 |
| Q20T | 1.76 |
| Q20D | 2.65 |
| Q20K | 1.9 |
| Q20I | 2.06 |

| Variant | protein stability index |
| --- | --- |
| Q20S | 1.77 |
| Q20N | 2.28 |
| Q20M | 1.82 |
| G23T | 1.67 |
| G23V | 2.33 |
| G23P | 2.03 |
| G23C | 1.52 |
| G23L | 1.4 |
| G23R | 2.68 |
| G23Q | 2.58 |
| F15V | 1.65 |
| F15T | 3.48 |
| F15A | 2.92 |
| F15R | 2.74 |
| F15Y | 1.47 |
| F15G | 3.56 |
| F15C | 1.86 |
| F15L | 2.48 |
| F15I | 2.27 |
| D16K | 1.81 |
| D16H | 2.26 |
| D16S | 1.07 |
| D16A | 1.79 |

| Variant | protein stability index |
| --- | --- |
| D16T | 1.99 |
| L3R | 3.24 |
| L3D | 2.98 |
| L3M | 2.34 |
| L3H | 4.17 |
| L3N | 1.72 |
| L3I | 2.26 |
| L3Y | 3.37 |
| L3P | 4.01 |
| L3C | 2.57 |
| T22G | 2.05 |
| T22D | 1.97 |
| T22K | 2.04 |
| T22H | 2.06 |
| T22S | 1.73 |
| T22P | 1.9 |
| Q2G | 1.74 |
| Q2C | 1.04 |
| Q2M | 3.19 |
| Q2N | 2.41 |
| Q2D | 2.84 |
| Q2I | 2.81 |
| G4K | 2.8 |

| Variant | protein stability index |
| --- | --- |
| G4W | 1.65 |
| G4Y | 1.08 |
| G4S | 1.4 |
| G19K | 2.3 |
| G19C | 2.11 |
| G19Q | 1.61 |
| G19S | 1.54 |
| G19A | 1.77 |
| E8T | 1.42 |
| E8K | 1.83 |
| E8Q | 1.67 |
| E8N | 2.4 |
| E8Y | 2.67 |
| E8H | 2.07 |
| E8P | 2.09 |
| V11S | 2.59 |
| V11N | 3.33 |
| V11M | 2.33 |
| V11P | 2.3 |
| V11E | 2.95 |
| V11A | 1.91 |
| L18N | 2.17 |
| L18D | 3.47 |

| Variant | protein stability index |
| --- | --- |
| L18C | 2.62 |
| L18I | 1.26 |
| L18F | 1.14 |
| L18S | 2.38 |
| L18E | 3.1 |
| L18Y | 2.13 |
| F9M | 2.88 |
| F9C | 2.37 |
| F9N | 4.57 |
| F9E | 4.37 |
| F9I | 1.65 |
| F9P | 3.64 |
| F9R | 3.67 |
| L21C | 3.05 |
| L21I | 2.91 |
| L21A | 2.22 |
| L21G | 2.36 |
| L21V | 2.22 |
| P13N | 2.69 |
| P13H | 2.21 |
| P13D | 1.4 |
| P13G | 1.31 |
| P13Y | 2.03 |

| Variant | protein stability index |
| --- | --- |
| G24S | 1.81 |
| G24Y | 2.55 |
| G24E | 2.31 |
| G24P | 1.64 |
| G24T | 1.48 |
| G24W | 1.45 |
| G24F | 1.17 |
| G24N | 1.5 |
| G24D | 1.94 |
| V7F | 1.8 |
| V7E | 2.5 |
| V7N | 2.46 |
| V7K | 2.27 |
| V7P | 1.67 |
| V7C | 1.34 |
| D10Q | 1.8 |
| D10T | 1.36 |
| D10N | 3 |
| D10V | 2.77 |
| G6Y | 1.3 |
| G6D | 1.88 |
| G6I | 1.28 |
| G6F | 1.63 |

| Variant | protein stability index |
| --- | --- |
| G6E | 2.38 |
| G6A | 1.53 |
| G6R | 2.33 |
| L12V | 2.24 |
| L12I | 1.64 |
| L12N | 2.99 |
| L12E | 3.98 |
| L12H | 3.08 |
| L12F | 1.54 |
| L12P | 2.48 |
| L12Q | 2.59 |
| L12S | 3.82 |
| A17V | 2.86 |
| A17H | 1.76 |
| A17T | 2.6 |
| A17G | 2.01 |
| A17D | 2.14 |
| A17W | 3.13 |
| A17S | 1.84 |

Variants of: B2
Experiment: as above
Conditions: c terminus: a fixed tail appended

| Variant | protein stability index |
| --- | --- |
| P15V | 1.93 |
| P15W | 1.75 |
| P15G | 2.44 |
| P15D | 2.15 |
| P15Q | 2.21 |
| P15N | 2.25 |
| P15R | 1.69 |
| P15E | 2.66 |
| P15C | 2.68 |
| P15I | 2.24 |
